Results published in the supplement of paper PMC10724198.
± gives the standard deviation of the averaged measurements.

System: Saccharomyces cerevisiae
Experiment: protein stability index of tFT-peptide fusion (C-terminal peptide) (PSI (0-1 scale)); higher = more stable (slower turnover)
Conditions: genetic background: wild type; temperature: 30 C
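Further: PSI is a weighted mean of sequencing reads over stability bins, variants kept only with over 10 reads, mCherry proximal and sfGFP distal, peptide attached via GGGS linker.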

| Sequence | protein stability index |
| --- | --- |
| LPPLAPAPPTTS | 0.617 ± 0.0065 |
| LRIAKSGVGGFA | 0.636 ± 0.029 |
| LILLTVGSPRSG | 0.686 ± 0.013 |
| TICRKPTLMSPQ | 0.775 ± 0.061 |
| TFSFSRPPLPPA | 0.6853 ± 0.0066 |
| PPSKRSKKPFRI | 0.698 ± 0.022 |
| VRDRVLFVARGG | 0.6996 ± 0.00075 |
| GGGGGSRGVCLG | 0.656 ± 0.063 |
| VPLFLVPGLSAV | 0.602 ± 0.0083 |
| GPWAGVRAEVKA | 0.6505 ± 0.0047 |
| PLCCHRSTGCTL | 0.676 ± 0.022 |
| KSEKKKKRKEKK | 0.718 ± 0.052 |
| PPPPPPPPSPSP | 0.742 ± 0.074 |
| WRGLGWSDAGGG | 0.654 ± 0.043 |
| NRPKVNSQERGY | 0.666 ± 0.02 |
| SLLLSRPLSTSH | 0.6945 ± 0.0031 |
| KVNKKKVITKQE | 0.713 ± 0.027 |
| VVVGWWALGRFL | 0.629 ± 0.018 |
| YTWHKLFFAYAI | 0.528 ± 0.0059 |
| FARLTSSQGGKD | 0.68 ± 0.025 |
| PVFPPPAPTPPT | 0.647 ± 0.046 |
| GSLWGGFFRGLL | 0.70105 ± 0.00018 |
| TSLKGHFGIRLW | 0.6763 ± 0.0021 |
| CIIIIGRHSIWG | 0.672 ± 0.057 |
| TAGVQSGCTRII | 0.618 ± 0.052 |
| GCVGGGWRHVGV | 0.725 ± 0.059 |

| Sequence | protein stability index |
| --- | --- |
| VPRRSLLSPPPP | 0.668 ± 0.023 |
| MPFTSDAAALAP | 0.689 ± 0.03 |
| PLPPHRLPYPRL | 0.81 ± 0.025 |
| PPDPPLHPPPSS | 0.733 ± 0.13 |
| LRVVISWGLDLY | 0.529 ± 0.02 |
| GGRVKPRGVGVG | 0.648 ± 0.016 |
| PPLSLPSSCPSP | 0.652 ± 0.1 |
| PIWWSRSALLAE | 0.671 ± 0.023 |
| TEKRMIINIKIK | 0.735 ± 0.03 |
| PSPSAPPPLSPL | 0.546 ± 0.052 |
| PPPSSAPPPTPP | 0.607 ± 0.15 |
| SCPHPAPPPPPP | 0.677 ± 0.023 |
| LVFRSMFFFRLF | 0.66 ± 0.017 |
| LGLMSSCFSMWC | 0.657 ± 0.15 |
| LSGCASGYRPPW | 0.683 ± 0.047 |
| YESISGLGHLSG | 0.6962 ± 0.005 |
| APLPPLRPPPSA | 0.687 ± 0.043 |
| PFTTSSQPDSPI | 0.735 ± 0.065 |
| DGTTAIAGPHPT | 0.629 ± 0.052 |
| ESIEVGTGDWGG | 0.673 ± 0.053 |
| YFSSGGITVSLC | 0.664 ± 0.066 |
| PPPPPHTPPPYP | 0.766 ± 0.05 |
| PPSWASLRLPPT | 0.708 ± 0.072 |
| YLVGVRDSFALR | 0.715 ± 0.02 |
| GHAYKYVDSFRR | 0.654 ± 0.044 |
| TSSWGGLVASLR | 0.74 ± 0.04 |

| Sequence | protein stability index |
| --- | --- |
| TTRYKKQNRRKE | 0.74 ± 0.24 |
| PQPPPPPPLSVS | 0.673 ± 0.0087 |
| PPGPLPTPPYPP | 0.545 ± 0.035 |
| GTVLSVARGWCV | 0.692 ± 0.11 |
| SVPSAWCWVSSS | 0.6 ± 0.038 |
| LRPPPPSAGAPP | 0.708 ± 0.088 |
| GRVRGVEGIGKG | 0.663 ± 0.018 |
| DFVGVVGFLVAG | 0.65 ± 0.032 |
| WFKSIREGKGSR | 0.68 ± 0.044 |
| GKQNQEKNKKTS | 0.696 ± 0.045 |
| LGFLSSLLCRSL | 0.779 ± 0.068 |
| LFFRLRSLLSRS | 0.623 ± 0.0063 |
| RGNPLLWHSSPR | 0.657 ± 0.051 |
| TLVPPPSPPPSP | 0.636 ± 0.065 |
| DCLRQTVPEGAM | 0.723 ± 0.069 |
| SVFSPSTALLYP | 0.697 ± 0.02 |
| SAFLPPLSPFSP | 0.753 ± 0.037 |
| VVTSVLCGRVHL | 0.682 ± 0.0069 |
| SLAGLLPCRLTP | 0.621 ± 0.023 |
| LVLLPLPLPLFP | 0.578 ± 0.015 |
| IKKKNQKHKKKN | 0.7114 ± 0.0029 |
| YLPRPPPTTALL | 0.74 ± 0.087 |
| VQVRPVVTVPSK | 0.7 ± 0.068 |
| PPPISTLSSSPS | 0.582 ± 0.059 |
| YQVTEEKLIMTQ | 0.674 ± 0.036 |
| GGWGCGGWGFVG | 0.58568 ± 0.00052 |

| Sequence | protein stability index |
| --- | --- |
| TFTESRLRMRLG | 0.623 ± 0.086 |
| SPPPSPPPPLPP | 0.5649 ± 0.0049 |
| PLSPPLLPPTTL | 0.706 ± 0.086 |
| VYVLTKSSMGRN | 0.692 ± 0.048 |
| RSNLGLNLVLAI | 0.591 ± 0.031 |
| LAPPPPAPPMSP | 0.717 ± 0.013 |
| FFVLGRGVCLGA | 0.649 ± 0.066 |
| KKIQKKTPAIDG | 0.671 ± 0.1 |
| LCCMFGLAGRGV | 0.654 ± 0.0083 |
| SRPPLLLLSSGA | 0.6583 ± 0.0059 |
| PLSVPHQPLCPV | 0.686 ± 0.028 |
| RRESAGFGLVWG | 0.709 ± 0.017 |
| LVPLPLPPPPPS | 0.672 ± 0.0028 |
| GGGVLLRGGSGP | 0.716 ± 0.053 |
| VWGRQGGGVGRA | 0.715 ± 0.088 |
| GMLCRAGPVRNV | 0.732 ± 0.011 |
| PDPPPRCRFLPL | 0.698 ± 0.044 |
| ELRCEMEFWCER | 0.594 ± 0.0066 |
| PTVPYRLVLSTV | 0.511 ± 0.056 |
| PRPPAPRTGPPP | 0.633 ± 0.011 |
| IKTVSDFLIVKL | 0.6998 ± 0.0055 |
| RNKRPDQRERKQ | 0.692 ± 0.17 |
| TLPSPPPRPPPA | 0.702 ± 0.061 |
